# In IntAct's records for PubMed 15572661:
# B1: Androgen receptor (Homo sapiens), P10275 (parent)
# chain: MEVQLGLGRVYPRPPSKTYRGAFQNLFQSVREVIQNPGPRHPEAASAAPPGASLLLLQQQQQQQQQQQQQQQQQQQQQQQETSPRQQQQQQGEDGSPQAHRRGPTGYLVLDEEQQPSQPQSALECHPERGCVPEPGAAVAASKGLPQQLPAPPDEDDSAAPSTLSLLGPTFPGLSSCSADLKDILSEASTMQLLQQQQQEAVSEGSSSGRAREASGAPTSSKDNYLGGTSTISDNAKELCKAVSVSMGLGVEALEHLSPGEQLRGDCMYAPLLGVPPAVRPTPCAPLAECKGSLLDDSAGKSTEDTAEYSPFKGGYTKGLEGESLGCSGSAAAGSSGTLELPSTLSLYKSGALDEAAAYQSRDYYNFPLALAGPPPPPPPPHPHARIKLENPLDYGSAWAAAAAQCRYGDLASLHGAGAAGPGSGSPSAAASSSWHTLFTAEEGQLYGPCGGGGGGGGGGGGGGGGGGGGGGGEAGAVAPYGYTRPPQGLAGQESDFTAPDVWYPGGMVSRVPYPSPTCVKSEMGPWMDSYSGPYGDMRLETARDHVLPIDYYFPPQKTCLICGDEASGCHYGALTCGSCKVFFKRAAEGKQKYLCASRNDCTIDKFRRKNCPSCRLRKCYEAGMTLGARKLKKLGNLKLQEEGEASSTTSPTEETTQKLTVSHIEGYECQPIFLNVLEAIEPGVVCAGHDNNQPDSFAALLSSLNELGERQLVHVVKWAKALPGFRNLHVDDQMAVIQYSWMGLMVFAMGWRSFTNVNSRMLYFAPDLVFNEYRMHKSRMYSQCVRMRHLSQEFGWLQITPQEFLCMKALLLFSIIPVDGLKNQKFFDELRMNYIKELDRIIACKRKNPTSCSRRFYQLTKLLDSVQPIARELHQFTFDLLIKSHMVSVDFPEMMAEIISVQVPKILSGKVKPIYFHTQ
# Variants of: B1
# Conditions: with daxx_human DAXX
row,effect of a mutation on the interaction,Variant
1,decreasing interaction strength,K388R;K521R
